Source: patent US8106168B2, “Metalloproteinase binding proteins” (Dyax Corp., priority 2005, dated 2012)

Tests used:
[1] = test system: Streptococcus cell wall (SCW)-induced arthritis, knee joints; test: SCW-induced arthritis, joint swelling; assay type: in vivo, mouse; settings: 2, 6 or 10 mg/kg IP at day 13, 16, 20 and 23; technecium uptake
Procedure: Antigen-induced arthritis, a model of rheumatoid arthritis, was induced by intraarticular injection of Streptococcus cell wall (SCW, […]) into the knee joints of C57B16 mice at day 0, 7, 14 and 21.
Mice were assorted into groups of six animals each and treated (by IP injection) with M0038-F01 (2, 6, or 10 mg/kg), a control isotype-matched antibody (control, 20 mg/ml), or etanercept (ENBREL®, 5 mg/ml) at day 13, 16, 20, and 23. Joint swelling (measured by technecium uptake) was measured at day 15, 16, 22, 23 and 28.

[2] = test system: BT747 breast cancer tumor fragments; test: BT747 breast tumor growth; assay type: in vivo, mouse; settings: small initial tumor size groups; M0038-F01 10, 1 or 0.1 mg/kg Q2d IP; trastuzumab 20 mg/kg
Procedure: Fragments (approximately 1 mm^3) of BT747 breast cancer tumor fragments were implanted into the flanks of female HRLN CB.17 SCID mice. […] All groups were dosed by intraperitoneal (IP) injection. Tumor volume was measured biweekly.

[3] = test system: B16F1 melanoma tumors; test: B16F1 melanoma subcutaneous tumor growth; assay type: in vivo, mouse; settings: M0038-F01 10, 1 or 0.1 mg/kg Q2d IP; doxorubicin 5 mg/kg weekly IP
Excerpt: B16F1 melanoma cells were implanted into Female C57/BL6 (CR) mice (4-6 Weeks old) mice by subcutaneous injection.

[4] = test system: MDA-MB-435 GFP tumors; test: MDA-MB-435 GFP orthotopic breast tumor growth; assay type: in vivo, mouse; settings: for Tumor Mass (±SD): excised primary tumor
Excerpt: Fragments of MDA-MB-435 GFP (MDA-MB-435 cells expressing green fluorescent protein) tumors were transplanted by surgical orthotopic implantation (SOI) into the right second mammary gland. Treatment was started on day 15 after SOI when the volume of primary tumors reached about 85 mm^3.
Mice were sacrificed at day 61 after the start of the treatment and tumors (primary and metastases) were identified by fluorescent imaging. Additionally, primary tumors were excised and weighed. […] However, M0038-F01 was not effective in reducing lymph node or lung metastases in this experiment.

[5] = test system: MDA-MB-231-GFP tumors; test: MDA-MB-231-GFP orthotopic breast tumor growth and metastasis
Procedure: Human breast cancer cells MDA-MB-231 cells transfected with green fluorescent protein (MDA-MB-231-GFP) were inoculated into the mammary fat pad of female BALB/c nu/nu mice with Matrigel. Animals were monitored for tumor growth, and at week 4-5 post tumor cell inoculation, animals with tumors of 30-50 mm^3 were selected, randomized and divided into experimental groups. […] Tumor volume was measured weekly, starting at week 5. Additionally, tissue samples of lung, liver, and spleen were taken to assess metastasis.
Animals were inoculated with MDA-MB-231-GFP cells as described above, then selected and randomized, and divided into experimental groups of 8 animals each. […] Tumor volume was measured weekly, starting at week 5.
Tumor tissue samples were collected on day 35 post-treatment for immunohistochemical analysis. Paraffin-embedded tissue samples were sectioned, stained with CD31 (Santa Cruz Biotechnology Inc., Santa Cruz, Calif., USA), Ki-67 (DAKO, Carpinteria, Calif., USA), MAPK, FAK, phosphoMAPK or phosphoFAK antibodies, visualized with biotinylated secondary antibodies using a VECTASTAIN® ABC (Vector Laboratories Inc., Burlingame, Calif., USA), and lightly counterstained with haemotoxylin.

[6] = immunostaining of tumor tissue, day 35

B1: M0038-F01: human antibody (Fab, IgG) that binds and inhibits MMP-14; HC SEQ ID NO: 156, LC SEQ ID NO: 157 (antibody, V domains shown)
VH: EVQLLESGGGLVQPGGSLRLSCAASGFTFSLYSMNWVRQAPGKGLEWVSSIYSSGGSTLYADSVKGRFTISRDNSKNTLYLQMNSLRAEDTAVYYCARGRAFDIWGQGTMVTVSS
VL: QDIQMTQSPSSLSAFVGDKVTITCRASQSVGTYLNWYQQKAGKAPELLIYATSNLRSGVPSRFSGSGSGTDFTLTINTLQPEDFATYYCQQSYSIPRFTFGPGTKVDIK
modifications: Synthetically generated peptide
joint swelling [1]: did not have an effect | tumor growth [2]: inhibition of tumor growth | tumor growth [3]: effective in reducing tumor growth | Tumor Mass (±SD) ([4]; 0.1 mg/kg Q2d IP, day 61): 1.54 ± 0.91 | Tumor Mass (±SD) ([4]; 1 mg/kg Q2d IP, day 61, * p≦0.05 compared to Control): 0.86 ± 0.21* | Tumor Mass (±SD) ([4]; 10 mg/kg (F01 and A2 Q2d IP; taxotere QW×3 i.v.), day 61, * p≦0.05 compared to Control): 0.82 ± 0.35* | tumor volume ([4]; M0038-F01 1 or 10 mg/kg Q2d IP, taxotere 10 mg/kg QW×3 i.v.): reduction of tumor volume | lymph node or lung metastases ([4]; fluorescent imaging, day 61): not effective | metastases to spleen ([5]; M0038-F01 10 mg/kg Q2d IP, DOX 5 mg/kg weekly IP): reduced in DOX and M0038-F01 treated animals, but the difference was not statistically significant | lung and liver metastases ([5]; M0038-F01 10 mg/kg Q2d IP, DOX 5 mg/kg weekly IP, compared to controls): statistically significant reduction | tumor growth (tumor volume), dose-ranging experiment ([5]; M0038-F01 0.1, 1 or 10 mg/kg Q2d IP for 5 weeks, A2 10 mg/kg): reduced in all M0038-F01 treated animals, with the 10 mg/kg dose being most effective, followed by the 1 mg/kg and 0.1 mg/kg doses | tumor growth (tumor volume) ([5]; M0038-F01 or A2 10 mg/kg Q2d IP, DOX 5 mg/kg weekly IP, five weeks): substantially inhibited | CD31 and KI67 levels compared to vehicle and A2 controls [5, 6]: statistically significant (p<0.05) reductions | phospho-FAK level [5, 6]: 4±1.2 A.U. | phospho-MAP kinase level [5, 6]: 2.4±0.7 A.U. | total MAP kinase and FAK levels ([5]; immunostaining of tumor tissue, day 35, versus control tumors): essentially the same as in control tumors | Ki67 ([5]; immunostaining of tumor tissue, day 35 post-treatment, image analysis): 2.4 ± 1.2
